Data: US20200392225A1 (Novartis, published 2020)
Where a chain is given by its changes, count along the chain named. Values belong to the binder of their own block, whether it stands above or below them.

What was measured:
[1] = target: T1, human NPR1 expressed on CHO-K1 cells (human, UniProt P16066 33-1061); test: flow cytometry, 1 uM IgG
T1 construct: also called hNPR1 CHO K1; human NPR1 expressing CHO-K1 cells
T1 sequence: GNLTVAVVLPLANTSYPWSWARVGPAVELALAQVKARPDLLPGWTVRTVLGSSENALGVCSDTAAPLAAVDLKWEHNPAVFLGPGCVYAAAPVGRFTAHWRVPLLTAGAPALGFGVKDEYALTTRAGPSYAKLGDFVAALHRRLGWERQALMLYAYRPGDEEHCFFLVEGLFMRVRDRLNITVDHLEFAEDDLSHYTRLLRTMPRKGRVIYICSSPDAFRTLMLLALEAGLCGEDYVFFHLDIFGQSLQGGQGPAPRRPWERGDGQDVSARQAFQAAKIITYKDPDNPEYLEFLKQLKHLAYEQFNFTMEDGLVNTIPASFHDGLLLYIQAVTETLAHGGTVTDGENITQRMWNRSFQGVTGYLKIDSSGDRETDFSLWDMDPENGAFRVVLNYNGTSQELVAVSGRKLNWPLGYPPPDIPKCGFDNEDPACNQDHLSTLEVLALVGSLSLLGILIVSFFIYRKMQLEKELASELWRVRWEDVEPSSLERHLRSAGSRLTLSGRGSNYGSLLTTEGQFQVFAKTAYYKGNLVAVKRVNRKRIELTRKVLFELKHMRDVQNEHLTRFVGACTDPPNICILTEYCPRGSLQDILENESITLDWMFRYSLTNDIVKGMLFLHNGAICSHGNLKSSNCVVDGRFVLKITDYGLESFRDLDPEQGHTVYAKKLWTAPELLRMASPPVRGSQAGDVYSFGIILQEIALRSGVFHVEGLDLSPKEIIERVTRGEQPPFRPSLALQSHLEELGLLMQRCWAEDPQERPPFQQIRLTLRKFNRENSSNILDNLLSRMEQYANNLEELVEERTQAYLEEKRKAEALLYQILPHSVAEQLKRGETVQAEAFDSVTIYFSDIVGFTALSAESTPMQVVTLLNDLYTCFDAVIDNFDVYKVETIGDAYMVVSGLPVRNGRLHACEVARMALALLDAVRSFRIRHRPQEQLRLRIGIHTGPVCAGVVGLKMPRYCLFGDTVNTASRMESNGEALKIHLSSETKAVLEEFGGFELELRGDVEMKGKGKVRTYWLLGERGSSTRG

human NPR1-ANP complex [2] = target: T2, human NPR1-ANP complex (human, UniProt P01160 124-151, limits assumed); test: ELISA, 1 uM IgG, +100 nM ANP
T2 construct: Receptor antigen measured in the presence of ANP; also called hNPR1 + ANP; hNPR1-ANP-complex
T2 sequence: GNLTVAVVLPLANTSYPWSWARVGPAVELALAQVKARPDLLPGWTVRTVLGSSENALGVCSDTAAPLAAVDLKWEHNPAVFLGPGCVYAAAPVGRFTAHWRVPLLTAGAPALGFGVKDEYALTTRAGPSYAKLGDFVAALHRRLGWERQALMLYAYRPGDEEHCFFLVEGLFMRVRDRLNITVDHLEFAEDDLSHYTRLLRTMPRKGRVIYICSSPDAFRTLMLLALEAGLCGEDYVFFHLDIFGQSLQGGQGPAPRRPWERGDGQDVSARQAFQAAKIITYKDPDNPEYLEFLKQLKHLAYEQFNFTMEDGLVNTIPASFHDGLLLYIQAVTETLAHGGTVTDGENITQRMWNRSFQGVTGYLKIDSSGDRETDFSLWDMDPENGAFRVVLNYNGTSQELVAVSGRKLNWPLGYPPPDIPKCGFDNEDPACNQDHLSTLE
T2 sequence (peptide): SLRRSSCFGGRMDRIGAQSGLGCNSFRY

rat NPR1-ANP complex [3] = target: T3, rat NPR1-ANP complex (rat); test: ELISA, 1 uM IgG, +100 nM ANP
T3 construct: Rat receptor antigen measured in the presence of ANP; also called rNPR1 + ANP; rNPR1-ANP-complex

[4] = target: T4, human NPR1 (Natriuretic Peptide Receptor 1), recombinant antigen (human, UniProt P16066 33-473); test: FRET assay on hNPR1, competitor Cy5-labeled ANP [cont.]
T4 construct: also called hNPR1; NPR1-hFc
T4 sequence: T2 sequence

[5] = target: T5, human NPR1 expressed on CHO-K1 cells in the presence of ANP (human, UniProt P01160 124-151); test: flow cytometry, 1 uM IgG, +100 nM ANP
T5 construct: also called hNPR1 CHO K1 + 100 nM ANP
T5 sequence: T1 sequence
T5 sequence (peptide): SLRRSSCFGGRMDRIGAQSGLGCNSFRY

[6] = target: T4, human NPR1 (Natriuretic Peptide …); test: ELISA, IgG titrated on the antigen without ANP [cont.]
[7] = target: T6, constitutively active human NPR1 mutant (W74R), recombinant antigen (human, UniProt P16066 33-473); test: as above
T6 construct: also called W74R hNPR1
T6 sequence: T2 sequence with W74R

human NPR1-ANP complex [8] = target: T2, human NPR1-ANP complex; test: ELISA, IgG titrated on the antigen with 250 fold molar excess of ANP [cont.]
[9] = target: T1, human NPR1 expressed on CHO-K1 cells; test: cell-based or functional assay
[10] = target: T4, human NPR1 (Natriuretic Peptide …); test: ELISA, 1 uM IgG
[11] = target: T6, constitutively active human NPR1 mutant …; test: ELISA, 1 uM IgG
[12] = target: T6, constitutively active human NPR1 mutant …; test: ELISA, IgG titrated on the antigen without ANP
rat NPR1-ANP complex [13] = target: T3, rat NPR1-ANP complex; test: ELISA, IgG titrated on the antigen with 250 fold molar excess of ANP
[14] = target: T7, rat NPR1, recombinant antigen (rat, UniProt P18910 29-469); test: ELISA, 1 uM IgG
T7 construct: NCBI NP_036745.1 printed; also called rNPR1
T7 sequence: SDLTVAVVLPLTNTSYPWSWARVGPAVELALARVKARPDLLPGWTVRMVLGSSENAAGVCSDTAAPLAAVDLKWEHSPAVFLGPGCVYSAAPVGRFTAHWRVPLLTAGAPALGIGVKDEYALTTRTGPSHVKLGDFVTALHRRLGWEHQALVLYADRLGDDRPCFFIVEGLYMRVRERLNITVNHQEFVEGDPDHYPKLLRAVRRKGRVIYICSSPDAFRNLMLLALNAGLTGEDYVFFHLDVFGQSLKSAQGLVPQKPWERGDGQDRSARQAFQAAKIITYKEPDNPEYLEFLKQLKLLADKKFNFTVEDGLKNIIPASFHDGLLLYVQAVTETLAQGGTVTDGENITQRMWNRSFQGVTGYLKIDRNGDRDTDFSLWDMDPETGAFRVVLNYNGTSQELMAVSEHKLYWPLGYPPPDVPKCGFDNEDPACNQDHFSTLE

B2: YY02 IgG (YY02_LALA) (antibody, V domains shown)
VH: EVQLVESGGGLVKPGGSLRLSCAASGFTFSSYSMNWVRQAPGKGLEWVSSISSSSSYIYYADSVKGRFTISRDNAKNSLYLQMNSLRAEDTAVYYCARSGYRGVYGFDYWGQGTLVTVSS
VL: DIQMTQSPSSVSASVGDRVTITCRASQGISSWLAWYQQKPGKAPKLLIYAASSLQSGVPSRFSGSGSGTDFTLTISSLQPEDFATYYCQQYYHSPLTFGQGTKVEIKR
EC50 (read off the curve) [12]: ~2 nM

B3: YY01 IgG (YY01_LALA) (antibody, V domains shown)
VH: EVQLVESGGGLVQPGGSLRLSCAASGFTFSSYWISWVRQAPGKGLEWVANIKQSGSETYYVESVKGRFTISRDNAKNSLYLQMNSLRAEDTAVYYCARSLRRRSTEHAGFDVWGQGTLVTVSS
VL: DIQMTQSPSSLSASVGDRVTITCRASQGISNYLAWYQQKPGKVPKLLIYAASTLQSGVPSRFSGSGSGTDFTLTISSLQPEDVATYYCQQADKFPYTFGQGTKVEIKR
flow cytometry S/BG [1]: 35 S/BG | ELISA IgG binding at 1 uM IgG (unit not given) (human NPR1-ANP complex [2]): 76 | ELISA IgG binding at 1 uM IgG (unit not given) (rat NPR1-ANP complex [3]): 50 | flow cytometry S/BG [5]: 21 S/BG | cGMP conc [nM] at 1 uM IgG, +0.075 nM ANP [9]: 14 nM | cGMP conc [nM] at 1 uM IgG, without ANP [9]: 5 nM | ELISA IgG binding at 1 uM IgG (unit not given) [10]: 54

B5: XX04 IgG (antibody, V domains shown)
VH: QVQLLESGGGLVQPGGSLRLSCAASGFTFSSYWMNWVRQAPGKGLEWVSAISSDGSYTYYADSVKGRFTISRDNSKNTLYLQMNSLRAEDTAVYYCARDRYSMIYSYGAGAFDYWGQGTLVTVSS
VL: B3 VL with N31S, V43A, A50T, V83F, A91E, D92W, K93V, F94K, Y96R
notes: also called XX04_LALA
EC50 (read off the curve) (rat NPR1-ANP complex [13]): ~0.2 nM

B6: XX03 IgG (antibody, V domains shown)
VH: B5 VH with Q1E, A50V, S52E, D54K, S56N, T58I, Y59F
VL: B2 VL with V11L, W32Y, A50T, S53T, Q89M, Y91S, H93E, S94K, L96R
notes: also called XX03_LALA
EC50 (read off the curve) (rat NPR1-ANP complex [13]): ~0.2 nM

The next lines start with the values.

flow cytometry S/BG [1]: 26 S/BG | ELISA IgG binding at 1 uM IgG (unit not given) (human NPR1-ANP complex [2]): 102 | ELISA IgG binding at 1 uM IgG (unit not given) (rat NPR1-ANP complex [3]): 4 | IC50 (read off the curve) [4]: ~5 nM | flow cytometry S/BG [5]: 18 S/BG | EC50 (read off the curve) [6]: ~8 nM | EC50 (read off the curve) [7]: ~5 nM | EC50 (read off the curve) (human NPR1-ANP complex [8]): ~8 nM | cGMP conc [nM] at 1 uM IgG, +0.075 nM ANP [9]: 15 nM | cGMP conc [nM] at 1 uM IgG, without ANP [9]: 12 nM | ELISA IgG binding at 1 uM IgG (unit not given) [10]: 91 | ELISA IgG binding at 1 uM IgG (unit not given) [11]: 83
B1: YY06 IgG (YY06_LALA) (antibody, V domains shown)
VH: EVQLLESGGGLVQPGGSLRLSCAASGFTFSSYAISWVRQAPGKGLEWVSAISGSGGSTYYAESVKGRFTISRDNSKNTLYLQMNSLRAEDTAVYYCARPYLGDRRSYGFDHWGQGTLVTVSS
VL: QSALTQPASVSGSPGQSITISCTGTSSDVGSYNLVSWYQQHPGKAPKLMIYEGSKRPSGVSNRFSGSKSGNTASLTISGLQAEDEADYYCSSYGFHIVVVVFGGGTKLTVLG

ELISA IgG binding at 1 uM IgG (unit not given) (human NPR1-ANP complex [2]): 60 | ELISA IgG binding at 1 uM IgG (unit not given) (rat NPR1-ANP complex [3]): 54 | flow cytometry S/BG [5]: 33 S/BG | EC50 (read off the curve) (human NPR1-ANP complex [8]): ~0.3 nM
B4: YY04 IgG (YY04_LALA) (antibody, V domains shown)
VH: EVQLVESGGGLVKPGGSLRLSCAASGFTFSNYWISWVRQAPGKGLEWVGRIKSKTYGGTTDYAEPVKGRFTISRDDSKNTLYLQMNSLKTEDTAVYYCAREKYSIRARGHGDYGFDVWGQGTLVTVSS
VL: B3 VL with A91G, D92Y, K93H, F94A, Y96F

flow cytometry S/BG [1]: 15 S/BG | ELISA IgG binding at 1 uM IgG (unit not given) (human NPR1-ANP complex [2]): 32 | ELISA IgG binding at 1 uM IgG (unit not given) (rat NPR1-ANP complex [3]): 16 | flow cytometry S/BG [5]: 5 S/BG | EC50 (read off the curve) [7]: ~1 nM | cGMP conc [nM] at 1 uM IgG, +0.075 nM ANP [9]: 15 nM | cGMP conc [nM] at 1 uM IgG, without ANP [9]: 13 nM | ELISA IgG binding at 1 uM IgG (unit not given) [10]: 81 | ELISA IgG binding at 1 uM IgG (unit not given) [11]: 69 | ELISA IgG binding at 1 uM IgG (unit not given) [14]: 11
B7: YY05 IgG (YY05_LALA) (antibody, V domains shown)
VH: EVQLVQSGAEVKKPGESLKISCKGSGYSFTSYWISWVRQMPGKGLEWMGIIYPGTSYTRYSPSFQGQVTISADKSISTAYLQWSSLKASDTAMYYCARGAVAGQLGFDHWGQGTLVTVSS
VL: QSVLTQPPSVSGAPGQRVTISCTGSSSNIGAGYDVHWYQQLPGTAPKLLIYGNSNRPSGVPDRFSGSKSGTSASLAITGLQAEDEADYYCQSYYTSSHGPVFGGGTKLTVLG
